Assay results: patent publication US20230348616A1 (MIE UNIVERSITY, published 2023)

Tests used:
[1] = molecular target: T1, HLA-A*0201/β2-microglobulin/NY-ESO peptide complex (human, biotinylated with E. coli biotin ligase at the added recognition sequence (biotinylated form used in the ELISA)); assay: screening of NYA-0001 mutant phage libraries
T1 construct: also called HLA/NY-ESO; HLA-A2/NY-ESO

2M = molecular target: T2, 2M; assay: flow cytometry, CD3e knockout T2 cells pulsed with 50 µM peptide, antibody at 100 nM, PE anti-human IgG; gMFI standardized to the HLA/peptide amount; DMSO-only cells 1.15
T2 construct: also called HLA-A2 / point-mutant NY-ESO peptide 2M complex on CD3e knockout T2 cells
Method: (§1) The cells were washed 2 times in PBS containing 5% FBS, PE conjugated F(ab′)2 Fragment Anti-Human IgG (Jackson Immuno Research Laboratories) diluted with PBS containing 5% FBS was added at 25 μl/well, and the resultant was allowed to stand at 4° C. for 30 minutes. The cells were washed 2 times in PBS containing 5% FBS, immobilized with Mildform 10 N (FUJIFILM Wako Pure Chemical Corporation) overnight, and resuspended in PBS containing 5% FBS. […] The cells were washed 2 times in PBS containing 5% FBS, immobilized with Mildform 10 N (FUJIFILM Wako Pure Chemical Corporation) overnight, and resuspended in PBS containing 5% FBS. The cell suspensions were subjected to detection using a flow cytometer (CantoII, Becton Dickinson). […] The standardized gMFI indicating the binding affinity of each Fc-conjugated anti-HLA-A2/NY-ESO-anti-CD3 bispecific molecule standardized with the amount of the HLA/peptide complex on the CD3e knockout T2 cells was determined in accordance with the following equation.

5A = molecular target: T3, 5A; assay: as above
T3 construct: also called HLA-A2 / point-mutant NY-ESO peptide 5A complex on CD3e knockout T2 cells
Method: as §1

6L = molecular target: T4, 6L; assay: as above
T4 construct: also called HLA-A2 / point-mutant NY-ESO peptide 6L complex on CD3e knockout T2 cells
Method: as §1

4A = molecular target: T5, 4A; assay: as above
T5 construct: also called HLA-A2 / point-mutant NY-ESO peptide 4A complex on CD3e knockout T2 cells
Method: as §1

3A = molecular target: T6, 3A; assay: as above
T6 construct: also called HLA-A2 / point-mutant NY-ESO peptide 3A complex on CD3e knockout T2 cells
Method: as §1

9A = molecular target: T7, 9A; assay: as above
T7 construct: peptide added to CD3e knockout T2 cells at 50 µM; also called HLA-A2 / point-mutant NY-ESO peptide 9A complex on CD3e knockout T2 cells
Method: as §1

B1: NYA-0060 (scFv, V domains shown)
VH: EVQLVESGGGVVQPGRSLTPSCSASGFSIRSYDIHWVRLAPGKGLEWVATISYDGSQKYFADSVKGRFTIFRDESENMVYLQMSGLRVEDTAVYHCARGSSGHYEAFDIWGQGTMVTVSS
VL: QSVLTQPPSVSAAPGQKVTISCSGSSSNIGNNYVSWYQQLPGTAPKLLIYDNNKRPSGIPDRFSGSKSGTSATLGITGLQTGDEADYYCGTWDSSLSAPWVFGGGTKVTVL
notes: NYA-0001 mutant from a phage library
[1]
  binding result: binds

B2: NYA-0082 (scFv, V domains shown)
VH: EVQLVESGGGVVQPGRSLTPSCSASGFSIRSYDIHWVRQAPGKGLEWVATISYDGSQKYFADSVKGRFTIFRDESENMVYLQMSGLRVEDTAVYHCARGSSGHYEAFDIWGQGTMVTVSS
VL: QSVLTQPPSVSAAPGQKVTISCSGSSSNIGNNYVSWYQRLPGTAPKLLIYDNNKRPSGIPDRFSGSKSGTSATLGITGLQTGDEADYYCGSWDSSLSAPWVFGGGTKVTVL
notes: as for B1
[1]
  binding result: binds

B3: NYA-0068 (scFv, V domains shown)
VH: EVQLVESGGGVVQPGRSLTPSCSASGFSIRSYDIHWVRQAPGKGLEWVATISYDGSQKYFADSVKGRFTIFRDESENMVYLQMSGLRVEDTAVYHCARGSSGHYEAFDIWGQGTMVTVSS
VL: QSVLTQPPSVSAAPGQKVTISCSGSSSNIGNWYVSWYQQLPGTAPKLLIYDNNKRPSGIPDRFSGSKSGTSATLGITGLQTGDEADYYCGTWDSSLSAPWVFGGGTKVTVL
notes: as for B1
[1]
  binding result: binds

B4: NYZ-1010 (bispecific antibody, human IgG1, lambda, L234A L235A)
chain 1: not shown
chain 2: not shown
light: NFMLTQPSSVSGVPGQRVTISCTGNTGNIGSNYVNWYQQLPGTAPKLLIYRDDKRPSGVPDRFSGSKSGTSASLAITGFQAEDEADYYCQSYSSGFIFGGGTKLTVLGQPKAAPSVTLFPPSSEELQANKATLVCLISDFYPGAVTVAWKADSSPVKAGVETTTPSKQSNNKYAASSYLSLTPEQWKSHRSYSCQVTHEGSTVEKTVAPTECS
2M
  standardized gMFI: 39.5
5A
  standardized gMFI: 1.02
6L
  standardized gMFI: 37.6
4A
  standardized gMFI: 1.05
3A
  standardized gMFI: 21.3
9A
  standardized gMFI: 51.9
